B1: Nitrogen regulatory protein P-II (Synechococcus elongatus (strain PCC 7942)), P0A3F4 (parent)
chain: MKKIEAIIRPFKLDEVKIALVNAGIVGMTVSEVRGFGRQKGQTERYRGSEYTVEFLQKLKLEIVVEDAQVDTVIDKIVAAARTGEIGDGKIFVSPVDQTIRIRTGEKNADAI
partner: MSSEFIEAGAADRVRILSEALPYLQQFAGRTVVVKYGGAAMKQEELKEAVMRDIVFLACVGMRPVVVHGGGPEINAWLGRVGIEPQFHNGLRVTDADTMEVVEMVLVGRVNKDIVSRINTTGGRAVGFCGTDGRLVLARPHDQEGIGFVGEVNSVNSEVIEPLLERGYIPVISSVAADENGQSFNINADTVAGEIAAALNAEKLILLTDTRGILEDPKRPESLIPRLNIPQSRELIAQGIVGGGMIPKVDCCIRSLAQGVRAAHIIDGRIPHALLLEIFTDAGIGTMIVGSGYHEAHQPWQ
B2: Acetylglutamate kinase (Synechococcus elongatus (strain PCC 7942)), Q6V1L5 (parent)
chain: B1 partner

Variants of: B1
Details: with argb_syne7 argB, Q6V1L5

Row | effect of a mutation on the interaction | Variant
1 | disrupting interaction | F11A
2 | disrupting interaction | Y46A
3 | disrupting interaction | R45A
4 | disrupting interaction | E85A
5 | disrupting interaction | R47A
6 | disrupting interaction strength | S49E
7 | disrupting interaction strength | S49A
8 | disrupting interaction strength | S49D

Variants of: B1
Details: with argb_syne7 argB

Row | effect of a mutation on the interaction | Variant
9 | disrupting interaction | S49D

Variants of: B2
Details: with glnb_syne7 glnB, P0A3F4

Row | effect of a mutation on the interaction | Variant
10 | disrupting interaction | MSSEFIEAGAADRVRILSEALPYLQQFAGRTVVVKYGGAAMKQEELKEAVMRDIVFLACVGMRPVVVHGGGPEINAWLGRVGIEPQFHNGLRVTDADTMEVVEMVLVGRVNKDIVSRINTTGGRAVGFCGTDGRLVLARPHDQEGIGFVGEVNSVNSEVIEPLLERGYIPVISSVAADENGQSFNINADTVAGEIAAALNAEKLILLTDTRGILEDPKRPESLIPRLNIPQSAELIAQGIVGGGMIPKVDCCIRSLAQGVRAAHIIDGRIPHALLLEIFTDAGIGTMIVGSGYHEAHQPWQ [R233A]
11 | disrupting interaction | MSSEFIEAGAADRVRILSEALPYLQQFAGRTVVVKYGGAAMKQEELKEAVMRDIVFLACVGMRPVVVHGGGPEINAWLGRVGIEPQFHNGLRVTDADTMEVVEMVLVGRVNKDIVSRINTTGGRAVGFCGTDGRLVLAAPHDQEGIGFVGEVNSVNSEVIEPLLERGYIPVISSVAADENGQSFNINADTVAGEIAAALNAEKLILLTDTRGILEDPKRPESLIPRLNIPQSRELIAQGIVGGGMIPKVDCCIRSLAQGVRAAHIIDGRIPHALLLEIFTDAGIGTMIVGSGYHEAHQPWQ [R139A]
12 | disrupting interaction | MSSEFIEAGAADRVRILSEALPYLQQFAGRTVVVKYGGAAMKQEELKEAVMRDIVFLACVGMRPVVVHGGGPEINAWLGRVGIEPQFHNGLRVTDADTMEVVEMVLVGRVNKDIVSRINTTGGRAVGFCGTDGRLVLARPHDQEGIGFVGEVNSVNSEVIEPLLERGYIPVISSVAADENGQSFNINADTVAGEIAAALNAEKLILLTDTRGILEDPKRPESLIPRLNIPQSRELIAQGIVGGGMIPKVDCCIRSLAAGVRAAHIIDGRIPHALLLEIFTDAGIGTMIVGSGYHEAHQPWQ [Q258A]
13 | disrupting interaction | MSSEFIEAGAADRVRILSEALPYLQQFAGRTVVVKYGGAAMKQEELKEAVMRDIVFLACVGMRPVVVHGGGPEINAWLGRVGIEPQFHNGLRVTDADTMEVVEMVLVGRVNKDIVSRINTTGGRAVGFCGTDGRLVLARPHDQEGIGFVGEVNSVNSEVIEPLLERGYIPVISSVAADENGQSFNINADTVAGEIAAALNAEKLILLTDTRGILEDPKRPESLIPRLNAPQSRELIAQGIVGGGMIPKVDCCIRSLAQGVRAAHIIDGRIPHALLLEIFTDAGIGTMIVGSGYHEAHQPWQ [I229A]
14 | disrupting interaction | MSSEFIEAGAADRVRILSEALPYLQQFAGRTVVVKYGGAAMKQEELKEAVMRDIVFLACVGMRPVVVHGGGPEINAWLGRVGIEPQFHNGLRVTDADTMEVVEMVLVGRVNKDIVSRINTTGGRAVGFCGTDGRLVLARPHDQEGIGFVGEVNSVNSEVIEPLLERGYIPVISSVAADENGQSFNINADTVAGEIAAALNAEKLILLTDTRGILEDPKRPESLIPRLNIPQSRELIAQGIVGGGMIPKVDCCIRSAAQGVRAAHIIDGRIPHALLLEIFTDAGIGTMIVGSGYHEAHQPWQ [L256A]
15 | disrupting interaction | MSSEFIEAGAADRVRILSEALPYLQQFAGRTVVVKYGGAAMKQEELKEAVMRDIVFLACVGMRPVVVHGGGPEINAWLGRVGIEPQFHNGLRVTDADTMEVVEMVLVGRVNKDIVSRINTTGGRAVGFCGTDGRLVLARPHDQEGIGFVGEVNSVNSEVIEPLLERGYIPVISSVAADENGQSFNINADTVAGEIAAALNAEKLILLTDTRGILEDPKRPESLIPRLNIPQSRELIAQGIVGGGMIPKVDCCIASLAQGVRAAHIIDGRIPHALLLEIFTDAGIGTMIVGSGYHEAHQPWQ [R254A]

Reference: IntAct's records for PubMed 17959776
